Assay results taken from patent US20230340055A1 (published 2023).

Assays:
[1] = target: T1, IL-2Rβγ (dimeric intermediate affinity IL-2 receptor), human, on cells (human, UniProt P14784 27-551; P31785 23-369); experiment: cell-based or functional assay
T1 sequence (looked up) 1: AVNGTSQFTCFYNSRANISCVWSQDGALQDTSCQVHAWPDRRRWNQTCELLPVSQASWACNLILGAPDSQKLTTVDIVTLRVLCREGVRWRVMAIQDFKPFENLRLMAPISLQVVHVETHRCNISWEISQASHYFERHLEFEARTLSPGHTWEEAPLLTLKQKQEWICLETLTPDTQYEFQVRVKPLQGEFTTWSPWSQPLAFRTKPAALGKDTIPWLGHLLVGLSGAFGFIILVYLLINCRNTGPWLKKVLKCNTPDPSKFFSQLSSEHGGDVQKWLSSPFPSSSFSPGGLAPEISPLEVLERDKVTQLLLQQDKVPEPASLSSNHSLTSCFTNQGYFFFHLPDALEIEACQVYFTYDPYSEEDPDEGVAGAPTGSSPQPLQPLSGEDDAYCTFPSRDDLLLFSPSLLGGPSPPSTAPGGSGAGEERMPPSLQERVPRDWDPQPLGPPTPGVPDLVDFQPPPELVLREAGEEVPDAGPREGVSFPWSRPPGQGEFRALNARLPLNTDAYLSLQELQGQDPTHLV
T1 sequence (looked up) 2: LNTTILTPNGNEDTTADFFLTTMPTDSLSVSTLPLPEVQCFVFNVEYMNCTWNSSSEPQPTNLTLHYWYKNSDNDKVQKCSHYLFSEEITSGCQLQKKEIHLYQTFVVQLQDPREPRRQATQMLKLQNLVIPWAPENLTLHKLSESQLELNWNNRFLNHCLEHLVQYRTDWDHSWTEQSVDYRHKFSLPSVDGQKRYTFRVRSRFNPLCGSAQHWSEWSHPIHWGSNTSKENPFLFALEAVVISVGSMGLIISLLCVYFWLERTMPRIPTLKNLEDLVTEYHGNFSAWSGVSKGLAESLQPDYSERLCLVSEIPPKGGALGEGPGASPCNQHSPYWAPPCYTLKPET

[2] = target: T2, IL-2Rαβγ (trimeric high-affinity IL-2 receptor), human, on cells (human, UniProt P01589 22-272; P14784 27-551; P31785 23-369); experiment: cell-based or functional assay
T2 sequence (looked up) 1: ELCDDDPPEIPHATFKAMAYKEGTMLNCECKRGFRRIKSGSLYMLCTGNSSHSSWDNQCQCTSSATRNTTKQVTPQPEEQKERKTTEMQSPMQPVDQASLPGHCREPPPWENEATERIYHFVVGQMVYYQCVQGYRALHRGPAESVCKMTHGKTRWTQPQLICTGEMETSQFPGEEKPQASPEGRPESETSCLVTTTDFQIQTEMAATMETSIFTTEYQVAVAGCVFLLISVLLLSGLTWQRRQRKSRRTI
T2 sequence (looked up) 2: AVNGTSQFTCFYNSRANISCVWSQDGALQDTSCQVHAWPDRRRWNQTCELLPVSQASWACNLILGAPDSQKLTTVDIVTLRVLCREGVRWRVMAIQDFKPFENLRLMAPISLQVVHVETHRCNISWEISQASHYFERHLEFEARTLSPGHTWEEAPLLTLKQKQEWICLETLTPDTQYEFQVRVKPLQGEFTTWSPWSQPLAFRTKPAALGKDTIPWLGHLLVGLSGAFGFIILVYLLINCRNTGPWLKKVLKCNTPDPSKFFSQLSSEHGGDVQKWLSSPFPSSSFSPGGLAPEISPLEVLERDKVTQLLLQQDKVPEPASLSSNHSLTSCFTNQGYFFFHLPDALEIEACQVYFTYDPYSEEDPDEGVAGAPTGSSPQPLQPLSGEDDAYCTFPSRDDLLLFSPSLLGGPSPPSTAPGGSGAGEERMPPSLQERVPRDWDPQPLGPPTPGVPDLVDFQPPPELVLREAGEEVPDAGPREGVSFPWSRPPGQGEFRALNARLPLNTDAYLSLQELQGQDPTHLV
T2 sequence (looked up) 3: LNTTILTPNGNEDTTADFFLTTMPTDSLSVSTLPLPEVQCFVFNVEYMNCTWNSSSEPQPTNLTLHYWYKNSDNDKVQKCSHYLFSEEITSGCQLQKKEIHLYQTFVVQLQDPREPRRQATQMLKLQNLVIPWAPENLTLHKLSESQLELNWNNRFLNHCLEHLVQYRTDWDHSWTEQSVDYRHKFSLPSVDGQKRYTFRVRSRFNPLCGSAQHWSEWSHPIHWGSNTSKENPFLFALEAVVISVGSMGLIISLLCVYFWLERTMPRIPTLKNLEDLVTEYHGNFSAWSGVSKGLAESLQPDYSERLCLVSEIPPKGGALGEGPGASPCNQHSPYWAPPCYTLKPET

EC50, pSTAT5 MFI, CD8 (human PBMCs) [1]: 78.8 ng/mL | EC50, pSTAT5 MFI, NK (human PBMCs) [1]: 11.7 ng/mL | EC50, pSTAT5 MFI, Treg (human PBMCs) [2]: 38 ng/mL
B1: protein 6 (ligand)
chain: APTSSSTKKTQLQLEHLLLDLQMILNGINNYKNPKLTFGNSTKFYMPKKATELKHLQCLEEELKPLEEVLNLAQSKNFHLRPRDLISNINVIVLELKGSETTFMCEYADETATIVEFLNRWITFSQSIISTLT
modifications: glycosylated (same sequence with the N-glycosylation motif FGNST as protein 1f); glycan sites not analysed separately for protein 6
